# Laboratory results as given in paper PMC9726900.
# What was measured:
# CHD4 WT (Homo sapiens) = assay: MST; settings: 3 mM Mg2+ in dilution buffer; CHD4: 50 mM HEPES pH 7.5, NaCl up to 50 mM and MgCl2 up to 3 mM (from dilution buffer), 100 ng/uL BSA, 0.5% glycerol, 25 nM Cy5 substrate; C1bC2a: 20 mM HEPES …
# [1] = system: CHD4 C1bC2a (SANT-SLIDE) (Homo sapiens); assay: MST; settings: 120 mM NaCl, 1 mM TCEP, no Mg2+; CHD4: 50 mM HEPES pH 7.5, NaCl up to 50 mM and MgCl2 up to 3 mM (from dilution buffer), 100 ng/uL BSA, 0.5% glycerol, 25 nM Cy5 substrate; C1bC2a: 20 mM HEPES …
# [2] = system: CHD4-IDR2-del- (Homo sapiens); assay: MST; settings: 3 mM Mg2+ in dilution buffer; CHD4: 50 mM HEPES pH 7.5, NaCl up to 50 mM and MgCl2 up to 3 mM (from dilution buffer), 100 ng/uL BSA, 0.5% glycerol, 25 nM Cy5 substrate; C1bC2a: 20 mM HEPES …
# [3] = system: CHD4-IDR2-scram (Homo sapiens); assay: MST; settings: 3 mM Mg2+ in dilution buffer; CHD4: 50 mM HEPES pH 7.5, NaCl up to 50 mM and MgCl2 up to 3 mM (from dilution buffer), 100 ng/uL BSA, 0.5% glycerol, 25 nM Cy5 substrate; C1bC2a: 20 mM HEPES …
# [4] = system: CHD4(1-1380) (Homo sapiens); assay: MST; settings: CHD4: 50 mM HEPES pH 7.5, NaCl up to 50 mM and MgCl2 up to 3 mM (from dilution buffer), 100 ng/uL BSA, 0.5% glycerol, 25 nM Cy5 substrate; C1bC2a: 20 mM HEPES …
# [5] = system: CHD4(1-1230) (Homo sapiens); assay: MST; settings: CHD4: 50 mM HEPES pH 7.5, NaCl up to 50 mM and MgCl2 up to 3 mM (from dilution buffer), 100 ng/uL BSA, 0.5% glycerol, 25 nM Cy5 substrate; C1bC2a: 20 mM HEPES …
# [6] = system: CHD4(1-1810) (Homo sapiens); assay: MST; settings: CHD4: 50 mM HEPES pH 7.5, NaCl up to 50 mM and MgCl2 up to 3 mM (from dilution buffer), 100 ng/uL BSA, 0.5% glycerol, 25 nM Cy5 substrate; C1bC2a: 20 mM HEPES …
# [7] = target: 46w60 nucleosome (recombinant human histone octamer on Widom 601 DNA with 46-bp and 60-bp flanks), Cy5-labelled (human) (UniProt P0C0S8); assay: MST; CHD4 titrated (1:2 serial dilution) into 25 nM Cy5-labelled 46w60 nucleosome; 50 mM HEPES pH 7.5, 50 mM NaCl, 3 mM MgCl2 dilution buffer, 100 ng/µL BSA, 0.5% glycerol; 10 min on ice; Monolith NT.115, 80% LED, 20% MST power; fit to a 1:1 binding isotherm
# Chain of CHD4(1–1230) (Q14839 1-1230): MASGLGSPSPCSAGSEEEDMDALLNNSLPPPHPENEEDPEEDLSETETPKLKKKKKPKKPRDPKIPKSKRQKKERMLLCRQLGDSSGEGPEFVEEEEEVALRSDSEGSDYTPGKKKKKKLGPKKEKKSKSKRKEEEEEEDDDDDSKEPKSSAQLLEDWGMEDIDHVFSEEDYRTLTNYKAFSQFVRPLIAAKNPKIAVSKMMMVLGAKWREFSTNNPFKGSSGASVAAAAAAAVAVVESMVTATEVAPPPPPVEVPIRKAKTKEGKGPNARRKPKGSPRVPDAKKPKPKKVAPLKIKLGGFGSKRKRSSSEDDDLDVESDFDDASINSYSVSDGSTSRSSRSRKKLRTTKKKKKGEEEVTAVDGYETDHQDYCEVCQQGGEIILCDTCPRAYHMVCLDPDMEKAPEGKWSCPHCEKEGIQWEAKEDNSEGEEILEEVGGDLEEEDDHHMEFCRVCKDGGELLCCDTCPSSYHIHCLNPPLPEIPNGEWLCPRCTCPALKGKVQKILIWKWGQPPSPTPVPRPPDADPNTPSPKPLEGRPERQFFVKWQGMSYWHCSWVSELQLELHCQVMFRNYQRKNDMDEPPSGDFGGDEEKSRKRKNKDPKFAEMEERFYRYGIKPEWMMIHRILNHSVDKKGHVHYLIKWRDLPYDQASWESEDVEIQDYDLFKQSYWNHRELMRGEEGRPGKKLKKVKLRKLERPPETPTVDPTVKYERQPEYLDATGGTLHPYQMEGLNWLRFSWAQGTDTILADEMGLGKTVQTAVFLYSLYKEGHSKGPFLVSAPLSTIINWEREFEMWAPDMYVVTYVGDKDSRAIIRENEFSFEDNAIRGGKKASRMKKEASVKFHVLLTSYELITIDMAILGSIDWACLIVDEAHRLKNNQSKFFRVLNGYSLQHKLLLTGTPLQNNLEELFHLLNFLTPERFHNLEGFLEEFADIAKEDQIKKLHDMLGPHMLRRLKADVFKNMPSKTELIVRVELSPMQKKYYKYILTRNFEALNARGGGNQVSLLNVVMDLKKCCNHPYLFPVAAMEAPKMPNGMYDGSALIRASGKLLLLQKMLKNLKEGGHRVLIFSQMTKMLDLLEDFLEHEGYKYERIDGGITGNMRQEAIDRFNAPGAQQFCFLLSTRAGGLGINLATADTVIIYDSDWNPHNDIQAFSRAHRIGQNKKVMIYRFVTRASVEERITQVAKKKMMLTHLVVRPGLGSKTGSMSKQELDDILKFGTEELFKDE
# Chain of CHD4(1–1380) (Q14839 1-1380): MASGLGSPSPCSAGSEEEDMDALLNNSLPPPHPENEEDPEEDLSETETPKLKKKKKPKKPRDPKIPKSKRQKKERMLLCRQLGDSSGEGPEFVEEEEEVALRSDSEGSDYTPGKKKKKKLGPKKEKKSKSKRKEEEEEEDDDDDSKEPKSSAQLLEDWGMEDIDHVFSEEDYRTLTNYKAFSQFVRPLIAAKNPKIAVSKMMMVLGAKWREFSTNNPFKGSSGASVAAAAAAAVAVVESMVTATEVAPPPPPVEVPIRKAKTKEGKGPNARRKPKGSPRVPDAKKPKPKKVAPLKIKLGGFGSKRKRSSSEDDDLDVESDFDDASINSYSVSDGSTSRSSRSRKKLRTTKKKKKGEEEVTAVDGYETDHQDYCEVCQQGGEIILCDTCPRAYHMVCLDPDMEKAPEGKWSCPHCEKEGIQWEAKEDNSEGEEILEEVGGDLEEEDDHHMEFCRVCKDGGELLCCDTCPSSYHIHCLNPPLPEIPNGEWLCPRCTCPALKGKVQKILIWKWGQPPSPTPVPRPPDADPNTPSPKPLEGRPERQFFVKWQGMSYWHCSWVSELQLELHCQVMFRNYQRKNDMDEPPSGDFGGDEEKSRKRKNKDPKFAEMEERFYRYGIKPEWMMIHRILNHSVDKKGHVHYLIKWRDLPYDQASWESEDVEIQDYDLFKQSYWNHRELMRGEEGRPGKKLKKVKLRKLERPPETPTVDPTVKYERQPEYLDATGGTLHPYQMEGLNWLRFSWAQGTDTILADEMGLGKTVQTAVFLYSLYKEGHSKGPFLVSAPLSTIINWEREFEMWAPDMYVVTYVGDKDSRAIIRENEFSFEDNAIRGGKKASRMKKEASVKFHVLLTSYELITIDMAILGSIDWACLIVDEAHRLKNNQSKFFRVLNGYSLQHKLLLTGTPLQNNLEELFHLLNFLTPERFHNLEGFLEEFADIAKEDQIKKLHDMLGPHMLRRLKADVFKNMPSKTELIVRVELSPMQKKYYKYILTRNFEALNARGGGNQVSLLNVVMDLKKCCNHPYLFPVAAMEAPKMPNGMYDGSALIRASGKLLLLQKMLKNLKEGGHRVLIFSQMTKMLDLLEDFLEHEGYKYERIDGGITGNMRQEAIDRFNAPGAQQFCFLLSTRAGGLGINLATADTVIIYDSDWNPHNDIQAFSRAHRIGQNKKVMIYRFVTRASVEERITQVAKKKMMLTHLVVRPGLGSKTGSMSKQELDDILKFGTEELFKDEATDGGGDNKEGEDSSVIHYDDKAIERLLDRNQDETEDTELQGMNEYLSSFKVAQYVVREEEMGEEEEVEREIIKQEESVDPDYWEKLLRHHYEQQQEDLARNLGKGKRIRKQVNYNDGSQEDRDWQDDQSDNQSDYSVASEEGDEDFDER
# Chain of CHD4-IDR2-del– (Q14839 whole entry, one chain of several): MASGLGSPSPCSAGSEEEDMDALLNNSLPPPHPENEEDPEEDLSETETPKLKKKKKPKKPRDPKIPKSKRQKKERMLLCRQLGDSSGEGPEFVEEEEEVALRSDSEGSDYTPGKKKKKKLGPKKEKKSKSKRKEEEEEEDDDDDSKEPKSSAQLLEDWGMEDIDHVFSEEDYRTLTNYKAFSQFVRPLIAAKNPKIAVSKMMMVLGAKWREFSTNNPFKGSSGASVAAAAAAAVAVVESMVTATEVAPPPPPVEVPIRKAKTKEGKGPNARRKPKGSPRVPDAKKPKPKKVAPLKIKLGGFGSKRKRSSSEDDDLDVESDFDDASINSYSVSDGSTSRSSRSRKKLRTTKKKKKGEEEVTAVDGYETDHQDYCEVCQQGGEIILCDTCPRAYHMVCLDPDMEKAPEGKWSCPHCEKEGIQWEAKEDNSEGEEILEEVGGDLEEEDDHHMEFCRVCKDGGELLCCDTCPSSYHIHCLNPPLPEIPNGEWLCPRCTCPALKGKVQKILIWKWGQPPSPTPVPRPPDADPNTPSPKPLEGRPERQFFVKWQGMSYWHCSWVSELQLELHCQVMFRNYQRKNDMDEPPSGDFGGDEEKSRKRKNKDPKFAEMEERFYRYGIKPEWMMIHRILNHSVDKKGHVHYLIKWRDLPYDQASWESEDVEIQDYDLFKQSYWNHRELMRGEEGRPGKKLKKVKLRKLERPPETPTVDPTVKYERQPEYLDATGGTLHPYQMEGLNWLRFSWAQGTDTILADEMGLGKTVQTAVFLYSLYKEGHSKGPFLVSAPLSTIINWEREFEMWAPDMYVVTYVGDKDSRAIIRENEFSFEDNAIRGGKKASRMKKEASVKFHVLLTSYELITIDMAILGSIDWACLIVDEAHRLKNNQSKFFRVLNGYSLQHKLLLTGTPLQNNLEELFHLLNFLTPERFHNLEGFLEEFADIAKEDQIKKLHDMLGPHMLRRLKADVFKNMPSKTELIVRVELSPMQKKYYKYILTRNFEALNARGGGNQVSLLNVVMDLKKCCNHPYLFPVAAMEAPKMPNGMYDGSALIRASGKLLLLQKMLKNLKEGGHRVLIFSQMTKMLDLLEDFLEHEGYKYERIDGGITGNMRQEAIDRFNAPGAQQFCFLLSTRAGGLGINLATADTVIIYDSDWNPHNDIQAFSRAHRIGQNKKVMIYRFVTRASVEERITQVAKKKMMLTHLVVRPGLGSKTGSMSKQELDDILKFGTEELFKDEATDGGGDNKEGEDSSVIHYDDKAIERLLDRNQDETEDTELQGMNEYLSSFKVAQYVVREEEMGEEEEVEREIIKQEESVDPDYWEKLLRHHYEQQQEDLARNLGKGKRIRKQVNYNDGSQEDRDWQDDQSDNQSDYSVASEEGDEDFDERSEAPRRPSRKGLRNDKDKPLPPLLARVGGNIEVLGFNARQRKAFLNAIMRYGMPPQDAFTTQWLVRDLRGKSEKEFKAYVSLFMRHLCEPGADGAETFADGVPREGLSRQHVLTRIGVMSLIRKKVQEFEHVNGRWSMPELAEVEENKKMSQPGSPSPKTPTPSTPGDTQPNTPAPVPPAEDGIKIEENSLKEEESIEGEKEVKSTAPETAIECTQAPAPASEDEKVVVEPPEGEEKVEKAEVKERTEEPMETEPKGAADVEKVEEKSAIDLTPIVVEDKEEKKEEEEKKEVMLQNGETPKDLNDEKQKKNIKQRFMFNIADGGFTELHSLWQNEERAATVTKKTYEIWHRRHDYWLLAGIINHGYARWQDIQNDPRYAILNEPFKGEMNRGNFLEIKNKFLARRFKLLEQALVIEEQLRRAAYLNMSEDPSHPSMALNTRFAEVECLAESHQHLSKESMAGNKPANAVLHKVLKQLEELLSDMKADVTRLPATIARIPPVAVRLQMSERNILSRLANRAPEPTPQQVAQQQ
# Chain of WT CHD4 (human chromodomain helicase DNA-binding protein 4, full length) (Q14839 whole entry): as the sequence (Q14839 whole entry, one chain of several) above
# Chain of CHD4-IDR2-del+ (Q14839 whole entry, one chain of several): as above
substance,measurement,setting,value
46w60 DNA (naked),Kd,CHD4 WT (Homo sapiens),350 nM
same,Kd,[1],10000 nM
46w60 nucleosome,Kd,CHD4 WT (Homo sapiens),45 nM
same,Kd,[2],20 nM
same,Kd,[3],100 nM
same,Kd,[4],430 nM
same,Kd,[5],210 nM
same,Kd,[6],150 nM
CHD4(1–1230) (from UniProt Q14839 1-1230) (domain or fragment),fold decrease in affinity against WT CHD4,[7],5 fold
same,fold increase in binding against CHD4(1–1380),[7],2 fold
CHD4(1–1380) (from UniProt Q14839 1-1380) (domain or fragment),fold decrease in substrate binding against WT CHD4,[7],10 fold
CHD4(1–1540) (from UniProt Q14839 1-1540) (domain or fragment),fold decrease in nucleosome binding against WT CHD4,[7],4 fold
CHD4(1–1810) (from UniProt Q14839 1-1810) (domain or fragment),fold decrease in affinity against WT CHD4,[7],3 fold
CHD4(355–1912) (from UniProt Q14839 355-1912) (domain or fragment),fold decrease in substrate binding affinity against WT CHD4,[7],3 fold
CHD4-IDR2-del+ (from UniProt Q14839 1-226; Q14839 363-1912) (enzyme),fold decrease in affinity against WT CHD4,[7],5 fold
CHD4-IDR2-del– (from UniProt Q14839 1-226; Q14839 363-1912) (enzyme),Kd,[7],20 nM
"WT CHD4 (human chromodomain helicase DNA-binding protein 4, full length) (from UniProt Q14839 1-1912) (enzyme)",Kd,[7],45 nM
